Target: short 17-residues peptide (cargo titrated against CADY-2)
Assay: steady state Trp fluorescence quenching, fixed CADY (0.1 uM) titrated with cargo peptide in PBS, quadratic fit

B1: CADY-2 (Ac-…-Cya) (peptide)
peptide: GLWRALWRALWRSLWKLKWKV
HELM: PEPTIDE1{[ac].G.L.W.R.A.L.W.R.A.L.W.R.S.L.W.K.L.K.W.K.V.[SCCN[*:1]]}$$$$V2.0
SMILES: CC(=O)NCC(=O)N[C@@H](CC(C)C)C(=O)N[C@@H](Cc1c[nH]c2ccccc12)C(=O)N[C@@H](CCCNC(=N)N)C(=O)N[C@@H](C)C(=O)N[C@@H](CC(C)C)C(=O)N[C@@H](Cc1c[nH]c2ccccc12)C(=O)N[C@@H](CCCNC(=N)N)C(=O)N[C@@H](C)C(=O)N[C@@H](CC(C)C)C(=O)N[C@@H](Cc1c[nH]c2ccccc12)C(=O)N[C@@H](CCCNC(=N)N)C(=O)N[C@@H](CO)C(=O)N[C@@H](CC(C)C)C(=O)N[C@@H](Cc1c[nH]c2ccccc12)C(=O)N[C@@H](CCCCN)C(=O)N[C@@H](CC(C)C)C(=O)N[C@@H](CCCCN)C(=O)N[C@@H](Cc1c[nH]c2ccccc12)C(=O)N[C@@H](CCCCN)C(=O)N[C@H](C(=O)NCCS)C(C)C
Kd: 19 nM

From US20090292003A1
